# Test results published in US20110166062A1 (INDIANA UNIVERSITY RESEARCH AND TECHNOLOGY, published 2011).
# Bridges are numbered along the chain shown (N, C = ends). Where no end group is shown, it is not given here.
# T1: GIP receptor (UniProt P48546 22-466)
# T1 sequence (looked up): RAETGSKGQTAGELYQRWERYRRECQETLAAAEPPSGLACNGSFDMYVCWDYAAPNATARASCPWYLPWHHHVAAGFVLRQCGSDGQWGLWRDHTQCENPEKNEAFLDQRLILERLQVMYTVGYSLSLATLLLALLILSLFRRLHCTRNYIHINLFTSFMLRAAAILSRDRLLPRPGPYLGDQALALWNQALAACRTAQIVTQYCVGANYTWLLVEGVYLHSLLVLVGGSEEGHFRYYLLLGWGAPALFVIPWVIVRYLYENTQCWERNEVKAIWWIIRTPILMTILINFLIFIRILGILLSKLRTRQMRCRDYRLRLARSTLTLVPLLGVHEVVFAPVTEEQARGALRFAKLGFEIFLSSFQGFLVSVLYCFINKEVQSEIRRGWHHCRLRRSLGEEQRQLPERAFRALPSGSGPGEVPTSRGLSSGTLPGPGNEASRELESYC
# Legend:
# GLP-1 receptor = GLP-1 receptor (UniProt P43220 24-463, limits assumed); assay: cell-based or functional assay
# GIP receptor = molecular target: T1, GIP receptor; assay: cell-based or functional assay
Binder,EC50 (GLP-1 receptor),EC50 (GIP receptor),relative activity (GIP receptor),relative activity (GLP-1 receptor)
HSQGTFTSDYSKYLDEIHQKEFIAWLMNT-NH2 (lactam 12-16; N-terminus assumed; SMILES CC[C@H](C)[C@H](NC(=O)[C@H](Cc1ccccc1)NC(=O)[C@H](CCC(=O)O)NC(=O)[C@H](CCCCN)NC(=O)[C@H](CCC(N)=O)NC(=O)[C@H](Cc1c[nH]cn1)NC(=O)[C@@H](NC(=O)[C@@H]1CCC(=O)NCCCC[C@H](NC(=O)[C@H](CO)NC(=O)[C@H](Cc2ccc(O)cc2)NC(=O)[C@H](CC(=O)O)NC(=O)[C@H](CO)NC(=O)[C@@H](NC(=O)[C@H](Cc2ccccc2)NC(=O)[C@@H](NC(=O)CNC(=O)[C@H](CCC(N)=O)NC(=O)[C@H](CO)NC(=O)[C@@H](N)Cc2c[nH]cn2)[C@@H](C)O)[C@@H](C)O)C(=O)N[C@@H](Cc2ccc(O)cc2)C(=O)N[C@@H](CC(C)C)C(=O)N[C@@H](CC(=O)O)C(=O)N1)[C@@H](C)CC)C(=O)N[C@@H](C)C(=O)N[C@@H](Cc1c[nH]c2ccccc12)C(=O)N[C@@H](CC(C)C)C(=O)N[C@@H](CCSC)C(=O)N[C@@H](CC(N)=O)C(=O)N[C@H](C(N)=O)[C@@H](C)O) [mt-63],310 pM,,,
HSQGTFTSDYSKYLDEIHQKEFIAWLMNT-NH2 (lactam 16-20; N-terminus assumed; SMILES CC[C@H](C)[C@H](NC(=O)[C@H](Cc1ccccc1)NC(=O)[C@H](CCC(=O)O)NC(=O)[C@@H]1CCCCNC(=O)CC[C@H](NC(=O)[C@H](CC(=O)O)NC(=O)[C@H](CC(C)C)NC(=O)[C@H](Cc2ccc(O)cc2)NC(=O)[C@H](CCCCN)NC(=O)[C@H](CO)NC(=O)[C@H](Cc2ccc(O)cc2)NC(=O)[C@H](CC(=O)O)NC(=O)[C@H](CO)NC(=O)[C@@H](NC(=O)[C@H](Cc2ccccc2)NC(=O)[C@@H](NC(=O)CNC(=O)[C@H](CCC(N)=O)NC(=O)[C@H](CO)NC(=O)[C@@H](N)Cc2c[nH]cn2)[C@@H](C)O)[C@@H](C)O)C(=O)N[C@@H]([C@@H](C)CC)C(=O)N[C@@H](Cc2c[nH]cn2)C(=O)N[C@@H](CCC(N)=O)C(=O)N1)C(=O)N[C@@H](C)C(=O)N[C@@H](Cc1c[nH]c2ccccc12)C(=O)N[C@@H](CC(C)C)C(=O)N[C@@H](CCSC)C(=O)N[C@@H](CC(N)=O)C(=O)N[C@H](C(N)=O)[C@@H](C)O) [mt-61],180 pM,9990 pM,,
YSQGTFTSDYSKYLDEQAAKEFIAWLLAGGPSSGAPPPS-NH2 (lactam 16-20; N-terminus assumed; SMILES CC[C@H](C)[C@H](NC(=O)[C@H](Cc1ccccc1)NC(=O)[C@H](CCC(=O)O)NC(=O)[C@@H]1CCCCNC(=O)CC[C@H](NC(=O)[C@H](CC(=O)O)NC(=O)[C@H](CC(C)C)NC(=O)[C@H](Cc2ccc(O)cc2)NC(=O)[C@H](CCCCN)NC(=O)[C@H](CO)NC(=O)[C@H](Cc2ccc(O)cc2)NC(=O)[C@H](CC(=O)O)NC(=O)[C@H](CO)NC(=O)[C@@H](NC(=O)[C@H](Cc2ccccc2)NC(=O)[C@@H](NC(=O)CNC(=O)[C@H](CCC(N)=O)NC(=O)[C@H](CO)NC(=O)[C@@H](N)Cc2ccc(O)cc2)[C@@H](C)O)[C@@H](C)O)C(=O)N[C@@H](CCC(N)=O)C(=O)N[C@@H](C)C(=O)N[C@@H](C)C(=O)N1)C(=O)N[C@@H](C)C(=O)N[C@@H](Cc1c[nH]c2ccccc12)C(=O)N[C@@H](CC(C)C)C(=O)N[C@@H](CC(C)C)C(=O)N[C@@H](C)C(=O)NCC(=O)NCC(=O)N1CCC[C@H]1C(=O)N[C@@H](CO)C(=O)N[C@@H](CO)C(=O)NCC(=O)N[C@@H](C)C(=O)N1CCC[C@H]1C(=O)N1CCC[C@H]1C(=O)N1CCC[C@H]1C(=O)N[C@@H](CO)C(N)=O) [mt-139],142 pM,569 pM,,
HSQGTFTSDYSKYLDKIHQEEFIAWLMNT-NH2 (lactam 16-20; N-terminus assumed; SMILES CC[C@H](C)[C@H](NC(=O)[C@H](Cc1ccccc1)NC(=O)[C@H](CCC(=O)O)NC(=O)[C@@H]1CCC(=O)NCCCC[C@H](NC(=O)[C@H](CC(=O)O)NC(=O)[C@H](CC(C)C)NC(=O)[C@H](Cc2ccc(O)cc2)NC(=O)[C@H](CCCCN)NC(=O)[C@H](CO)NC(=O)[C@H](Cc2ccc(O)cc2)NC(=O)[C@H](CC(=O)O)NC(=O)[C@H](CO)NC(=O)[C@@H](NC(=O)[C@H](Cc2ccccc2)NC(=O)[C@@H](NC(=O)CNC(=O)[C@H](CCC(N)=O)NC(=O)[C@H](CO)NC(=O)[C@@H](N)Cc2c[nH]cn2)[C@@H](C)O)[C@@H](C)O)C(=O)N[C@@H]([C@@H](C)CC)C(=O)N[C@@H](Cc2c[nH]cn2)C(=O)N[C@@H](CCC(N)=O)C(=O)N1)C(=O)N[C@@H](C)C(=O)N[C@@H](Cc1c[nH]c2ccccc12)C(=O)N[C@@H](CC(C)C)C(=O)N[C@@H](CCSC)C(=O)N[C@@H](CC(N)=O)C(=O)N[C@H](C(N)=O)[C@@H](C)O) [mt-69],410 pM,14600 pM,0.57%,
HSQGTFTSDYSKYLDKIHQEEFIAWLMNT-NH2 [mt-68],820 pM,,,
YAPGTFISDYSIAMDKIHQQDFVNWLLAQKGKKNWLKHNITQ-NH2 [mt-101],,71300 pM,0.06%,
YSQGTFTSDYSKYLDEQAAKEFVNWLLAGGPSSGAPPPS-NH2 (lactam 16-20; N-terminus assumed; SMILES CC(C)C[C@H](NC(=O)[C@H](CC(C)C)NC(=O)[C@H](Cc1c[nH]c2ccccc12)NC(=O)[C@H](CC(N)=O)NC(=O)[C@@H](NC(=O)[C@H](Cc1ccccc1)NC(=O)[C@H](CCC(=O)O)NC(=O)[C@@H]1CCCCNC(=O)CC[C@H](NC(=O)[C@H](CC(=O)O)NC(=O)[C@H](CC(C)C)NC(=O)[C@H](Cc2ccc(O)cc2)NC(=O)[C@H](CCCCN)NC(=O)[C@H](CO)NC(=O)[C@H](Cc2ccc(O)cc2)NC(=O)[C@H](CC(=O)O)NC(=O)[C@H](CO)NC(=O)[C@@H](NC(=O)[C@H](Cc2ccccc2)NC(=O)[C@@H](NC(=O)CNC(=O)[C@H](CCC(N)=O)NC(=O)[C@H](CO)NC(=O)[C@@H](N)Cc2ccc(O)cc2)[C@@H](C)O)[C@@H](C)O)C(=O)N[C@@H](CCC(N)=O)C(=O)N[C@@H](C)C(=O)N[C@@H](C)C(=O)N1)C(C)C)C(=O)N[C@@H](C)C(=O)NCC(=O)NCC(=O)N1CCC[C@H]1C(=O)N[C@@H](CO)C(=O)N[C@@H](CO)C(=O)NCC(=O)N[C@@H](C)C(=O)N1CCC[C@H]1C(=O)N1CCC[C@H]1C(=O)N1CCC[C@H]1C(=O)N[C@@H](CO)C(N)=O) [mt-127],55 pM,518 pM,,
YAQGTFISDYSKYLDEQAAKEFVNWLLAGGPSSGAPPPS-NH2 (lactam 16-20; N-terminus assumed; SMILES CC[C@H](C)[C@H](NC(=O)[C@H](Cc1ccccc1)NC(=O)[C@@H](NC(=O)CNC(=O)[C@H](CCC(N)=O)NC(=O)[C@H](C)NC(=O)[C@@H](N)Cc1ccc(O)cc1)[C@@H](C)O)C(=O)N[C@@H](CO)C(=O)N[C@@H](CC(=O)O)C(=O)N[C@@H](Cc1ccc(O)cc1)C(=O)N[C@@H](CO)C(=O)N[C@@H](CCCCN)C(=O)N[C@@H](Cc1ccc(O)cc1)C(=O)N[C@@H](CC(C)C)C(=O)N[C@@H](CC(=O)O)C(=O)N[C@H]1CCC(=O)NCCCC[C@@H](C(=O)N[C@@H](CCC(=O)O)C(=O)N[C@@H](Cc2ccccc2)C(=O)N[C@H](C(=O)N[C@@H](CC(N)=O)C(=O)N[C@@H](Cc2c[nH]c3ccccc23)C(=O)N[C@@H](CC(C)C)C(=O)N[C@@H](CC(C)C)C(=O)N[C@@H](C)C(=O)NCC(=O)NCC(=O)N2CCC[C@H]2C(=O)N[C@@H](CO)C(=O)N[C@@H](CO)C(=O)NCC(=O)N[C@@H](C)C(=O)N2CCC[C@H]2C(=O)N2CCC[C@H]2C(=O)N2CCC[C@H]2C(=O)N[C@@H](CO)C(N)=O)C(C)C)NC(=O)[C@H](C)NC(=O)[C@H](C)NC(=O)[C@H](CCC(N)=O)NC1=O) [mt-145],9940 pM,1090 pM,,
YAEGTFTSDYSIYMDEQAAKEFVNWLLAGGPSSGAPPPS-NH2 (lactam 16-20; N-terminus assumed; SMILES CC[C@H](C)[C@H](NC(=O)[C@H](CO)NC(=O)[C@H](Cc1ccc(O)cc1)NC(=O)[C@H](CC(=O)O)NC(=O)[C@H](CO)NC(=O)[C@@H](NC(=O)[C@H](Cc1ccccc1)NC(=O)[C@@H](NC(=O)CNC(=O)[C@H](CCC(=O)O)NC(=O)[C@H](C)NC(=O)[C@@H](N)Cc1ccc(O)cc1)[C@@H](C)O)[C@@H](C)O)C(=O)N[C@@H](Cc1ccc(O)cc1)C(=O)N[C@@H](CCSC)C(=O)N[C@@H](CC(=O)O)C(=O)N[C@H]1CCC(=O)NCCCC[C@@H](C(=O)N[C@@H](CCC(=O)O)C(=O)N[C@@H](Cc2ccccc2)C(=O)N[C@H](C(=O)N[C@@H](CC(N)=O)C(=O)N[C@@H](Cc2c[nH]c3ccccc23)C(=O)N[C@@H](CC(C)C)C(=O)N[C@@H](CC(C)C)C(=O)N[C@@H](C)C(=O)NCC(=O)NCC(=O)N2CCC[C@H]2C(=O)N[C@@H](CO)C(=O)N[C@@H](CO)C(=O)NCC(=O)N[C@@H](C)C(=O)N2CCC[C@H]2C(=O)N2CCC[C@H]2C(=O)N2CCC[C@H]2C(=O)N[C@@H](CO)C(N)=O)C(C)C)NC(=O)[C@H](C)NC(=O)[C@H](C)NC(=O)[C@H](CCC(N)=O)NC1=O) [mt-142],41 pM,132 pM,36.4%,163%
